From IntAct's records for PubMed 31515488

B1: Ribonuclease P protein subunit p30 (Homo sapiens), P78346 (parent)
chain: MAVFADLDLRAGSDLKALRGLVETAAHLGYSVVAINHIVDFKEKKQEIEKPVAVSELFTTLPIVQGKSRPIKILTRLTIIVSDPSHCNVLRATSSRARLYDVVAVFPKTEKLFHIACTHLDVDLVCITVTEKLPFYFKRPPINVAIDRGLAFELVYSPAIKDSTMRRYTISSALNLMQICKGKNVIISSAAERPLEIRGPYDVANLGLLFGLSESDAKAAVSTNCRAALLHGETRKTAFGIISTVKKPRPSEGDEDCLPASKKAKCEG
B2: Protein FAM200C (Homo sapiens), Q8IZ13 (parent)
chain: MSKKRKWDDDYVRYWFTCTTEVDGTQRPQCVLCNSVFSNADLRPSKLSDHFNRQHGGVAGHDLNSLKHMPAPSDQSETLKAFGVASHEDTLLQASYQFAYLCAKEKNPHTVAEKLVKPCALEIAQIVLGPDAQKKLQQVPLSDDVIHSRIDEMSQDILQQVLEDIKASPLKVGIQLAETTDMDDCSQLMAFVRYIKEREIVEEFLFCEPLQLSMKGIDVFNLFRDFFLKHKIALDVCGSVCTDGASSMLGENSEFVAYVKKEIPHIVVTHCLLNPHALVIKTLPTKLRDALFTVVRVINFIKGRAPNHRLFQAFFEEIGIEYSVLLFHTEMRWLSRGQILTHIFEMYEEINQFLHHKSSNLVDGFENKEFKIHLAYLADLFKHLNELSASMQRTGMNTVSAREKLSAFVRKFPFWQKRIEKRNFTNFPFLEEIIVSDNEGIFIAAEITLHLQQLSNFFHGYFSIGDLNEASKWILDPFLFNIDFVDDSYLMKNDLAELRASGQILMEFETMKLEDFWCAQFTAFPNLAKTALEILMPFATTYLCELGFSSLLHFKTKSRSCFNLSDDIRVAISKKVPRFSDIIEQKLQLQQKSL
B3: Cyclin-D1-binding protein 1 (Homo sapiens), O95273 (parent)
chain: MASATAPAAAVPTLASPLEQLRHLAEELRLLLPRVRVGEAQETTEEFNREMFWRRLNEAAVTVSREATTLTIVFSQLPLPSPQETQKFCEQVHAAIKAFIAVYYLLPKDQGITLRKLVRGATLDIVDGMAQLMEVLSVTPTQSPENNDLISYNSVWVACQQMPQIPRDNKAAALLMLTKNVDFVKDAHEEMEQAVEECDPYSGLLNDTEENNSDNHNHEDDVLGFPSNQDLYWSEDDQELIIPCLALVRASKACLKKIRMLVAENGKKDQVAQLDDIVDISDEISPSVDDLALSIYPPMCHLTVRINSAKLVSVLKKALEITKASHVTPQPEDSWIPLLINAIDHCMNRIKELTQSELEL
partner: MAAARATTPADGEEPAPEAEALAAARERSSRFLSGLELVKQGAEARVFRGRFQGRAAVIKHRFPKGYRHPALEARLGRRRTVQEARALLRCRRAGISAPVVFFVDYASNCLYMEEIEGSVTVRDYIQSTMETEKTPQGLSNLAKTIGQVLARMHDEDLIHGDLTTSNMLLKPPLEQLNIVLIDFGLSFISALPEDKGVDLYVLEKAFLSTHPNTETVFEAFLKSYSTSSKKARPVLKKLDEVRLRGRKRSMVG
B4: Protein LDOC1 (Homo sapiens), O95751 (parent)
chain: MVDELVLLLHALLMRHRALSIENSQLMEQLRLLVCERASLLRQVRPPSCPVPFPETFNGESSRLPEFIVQTASYMLVNENRFCNDAMKVAFLISLLTGEAEEWVVPYIEMDSPILGDYRAFLDEMKQCFGWDDDEDDDDEEEEDDY
partner: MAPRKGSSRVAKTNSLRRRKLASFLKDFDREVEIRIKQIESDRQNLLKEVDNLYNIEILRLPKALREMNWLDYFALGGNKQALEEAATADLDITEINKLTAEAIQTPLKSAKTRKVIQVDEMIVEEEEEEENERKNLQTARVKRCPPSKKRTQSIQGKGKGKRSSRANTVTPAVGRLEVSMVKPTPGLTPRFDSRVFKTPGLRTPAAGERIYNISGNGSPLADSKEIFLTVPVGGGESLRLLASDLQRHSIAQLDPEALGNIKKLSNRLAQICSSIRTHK
B5: E3 ubiquitin-protein ligase Midline-1 (Homo sapiens), O15344 (parent)
chain: METLESELTCPICLELFEDPLLLPCAHSLCFNCAHRILVSHCATNESVESITAFQCPTCRHVITLSQRGLDGLKRNVTLQNIIDRFQKASVSGPNSPSETRRERAFDANTMTSAEKVLCQFCDQDPAQDAVKTCVTCEVSYCDECLKATHPNKKPFTGHRLIEPIPDSHIRGLMCLEHEDEKVNMYCVTDDQLICALCKLVGRHRDHQVAALSERYDKLKQNLESNLTNLIKRNTELETLLAKLIQTCQHVEVNASRQEAKLTEECDLLIEIIQQRRQIIGTKIKEGKVMRLRKLAQQIANCKQCIERSASLISQAEHSLKENDHARFLQTAKNITERVSMATASSQVLIPEINLNDTFDTFALDFSREKKLLECLDYLTAPNPPTIREELCTASYDTITVHWTSDDEFSVVSYELQYTIFTGQANVVSLCNSADSWMIVPNIKQNHYTVHGLQSGTKYIFMVKAINQAGSRSSEPGKLKTNSQPFKLDPKSAHRKLKVSHDNLTVERDESSSKKSHTPERFTSQGSYGVAGNVFIDSGRHYWEVVISGSTWYAIGLAYKSAPKHEWIGKNSASWALCRCNNNWVVRHNSKEIPIEPAPHLRRVGILLDYDNGSIAFYDALNSIHLYTFDVAFAQPVCPTFTVWNKCLTIITGLPIPDHLDCTEQLP
partner: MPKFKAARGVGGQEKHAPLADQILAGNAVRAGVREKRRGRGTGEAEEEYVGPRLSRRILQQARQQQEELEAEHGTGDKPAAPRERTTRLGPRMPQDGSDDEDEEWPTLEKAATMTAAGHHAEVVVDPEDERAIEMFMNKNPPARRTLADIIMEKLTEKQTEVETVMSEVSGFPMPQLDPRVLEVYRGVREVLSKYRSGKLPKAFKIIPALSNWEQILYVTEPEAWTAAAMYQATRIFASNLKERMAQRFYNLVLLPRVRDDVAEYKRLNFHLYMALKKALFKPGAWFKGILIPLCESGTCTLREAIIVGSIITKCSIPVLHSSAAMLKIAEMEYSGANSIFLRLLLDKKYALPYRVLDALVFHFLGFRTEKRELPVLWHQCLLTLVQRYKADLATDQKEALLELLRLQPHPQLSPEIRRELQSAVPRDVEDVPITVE
B6: Keratin-associated protein 3-2 (Homo sapiens), Q9BYR7 (parent)
chain: MDCCASRSCSVPTGPATTICSSDKSCRCGVCLPSTCPHTVWLLEPICCDNCPPPCHIPQPCVPTCFLLNSCQPTPGLETLNLTTFTQPCCEPCLPRGC

Variants of: B1
Settings: with hm20a_human HMG20A

Variant | effect of a mutation on the interaction
G12D | with no effect

Variants of: B2
Settings: with mt21a_human METTL21A

Variant | effect of a mutation on the interaction
M248K | disrupting interaction strength

Variants of: B3
Settings: with prpk_human TP53RK

Variant | effect of a mutation on the interaction
I277T | disrupting interaction strength

Variants of: B4
Settings: with borea_human CDCA8, Q53HL2

Variant | effect of a mutation on the interaction
L12H | disrupting interaction strength

Variants of: B5
Settings: with byst_human BYSL

Variant | effect of a mutation on the interaction
D84N | disrupting interaction strength

Variants of: B6
Settings: with yipf3_human YIPF3, Q9GZM5
Sequence of yipf3_human YIPF3, Q9GZM5 (Q9GZM5 whole entry): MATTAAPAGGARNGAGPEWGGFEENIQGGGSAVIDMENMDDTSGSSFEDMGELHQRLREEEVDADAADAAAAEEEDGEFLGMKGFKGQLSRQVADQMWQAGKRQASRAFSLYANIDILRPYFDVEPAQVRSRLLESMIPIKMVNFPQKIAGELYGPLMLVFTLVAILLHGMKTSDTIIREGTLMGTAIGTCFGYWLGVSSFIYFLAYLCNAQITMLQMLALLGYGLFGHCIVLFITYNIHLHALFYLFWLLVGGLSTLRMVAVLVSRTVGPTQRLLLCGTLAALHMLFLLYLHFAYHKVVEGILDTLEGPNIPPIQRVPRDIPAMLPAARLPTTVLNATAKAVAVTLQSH

Variant | effect of a mutation on the interaction
R27C | with no effect
S8G | with no effect

Variants of: B6
Settings: with hxa1_human HOXA1, P49639
Sequence of hxa1_human HOXA1, P49639 (P49639 whole entry): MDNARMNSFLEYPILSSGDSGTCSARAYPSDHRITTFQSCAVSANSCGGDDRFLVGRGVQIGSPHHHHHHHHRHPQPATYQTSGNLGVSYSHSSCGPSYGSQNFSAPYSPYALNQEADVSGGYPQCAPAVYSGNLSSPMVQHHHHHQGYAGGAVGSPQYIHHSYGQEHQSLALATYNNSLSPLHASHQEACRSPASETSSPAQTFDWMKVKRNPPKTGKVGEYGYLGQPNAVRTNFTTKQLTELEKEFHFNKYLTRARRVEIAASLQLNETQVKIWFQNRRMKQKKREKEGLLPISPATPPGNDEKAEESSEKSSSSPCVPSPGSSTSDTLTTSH

Variant | effect of a mutation on the interaction
R27C | with no effect
S8G | with no effect

Variants of: B6
Settings: with otx1_human OTX1, P32242
Sequence of otx1_human OTX1, P32242 (P32242 whole entry): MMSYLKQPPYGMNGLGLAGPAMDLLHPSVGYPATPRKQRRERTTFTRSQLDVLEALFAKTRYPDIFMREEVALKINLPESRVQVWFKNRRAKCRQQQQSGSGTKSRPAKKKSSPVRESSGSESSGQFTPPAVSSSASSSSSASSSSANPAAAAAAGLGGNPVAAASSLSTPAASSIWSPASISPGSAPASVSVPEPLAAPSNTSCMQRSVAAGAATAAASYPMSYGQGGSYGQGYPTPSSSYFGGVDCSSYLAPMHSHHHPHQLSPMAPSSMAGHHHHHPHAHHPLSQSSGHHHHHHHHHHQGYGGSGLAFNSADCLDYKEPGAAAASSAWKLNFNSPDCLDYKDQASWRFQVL

Variant | effect of a mutation on the interaction
R27C | with no effect
S8G | with no effect
